Test results: US8586357B2, “Markers of definitive endoderm” (ViaCyte, Inc., priority 2003, dated 2013)

Tested on: hESCs
Assay: Immunocytochemistry: SOX17, AFP and TM antibody labeling of differentiating hESCs
Format: cell-based, human
Text: As described in detail herein, the SOX17 antibody was utilized to specifically examine effects of various treatments and differentiation procedures aimed at the production of SOX17 positive definitive endoderm cells. Other antibodies reactive to AFP, SPARC and Thrombomodulin were also employed to rule out the production of visceral and parietal endoderm (extra-embryonic endoderm).
As evidence that the SOX17 antibody is specific for human SOX17 protein and furthermore marks definitive endoderm, partially differentiated hESCs were co-labeled with SOX17 and AFP antibodies. […] However, AFP and SOX7 are not expressed in definitive endoderm cells at levels detectable by ICC, and thus, they be can employed as negative markers for bonifide definitive endoderm cells. It was shown that SOX17 antibody labels populations of cells that exist as discrete groupings of cells or are intermingled with AFP positive cells. […] Similarly, since parietal endoderm has also been reported to express SOX17, antibody co-labeling with SOX17 together with the parietal markers SPARC and/or Thrombomodulin (TM) can be used to identify the SOX17^+ cells which are parietal endoderm. As shown in FIGS. 6A-C, Thrombomodulin and SOX17 co-labelled parietal endoderm cells were produced by random differentiation of hES cells.
With the SOX17 antibody and Q-PCR tools described above we have explored a number of procedures capable of efficiently programming ESCs to become SOX17^hi/AFP^lo/SPARC/TM^lo definitive endoderm cells. We applied a variety of differentiation protocols aimed at increasing the number and proliferative capacity of these cells as measured at the population level by Q-PCR for SOX17 gene expression and at the level of individual cells by antibody labeling of SOX17 protein.
To determine the effect of TGFβ factor treatment at the individual cell level, a time course of TGFβ factor addition was examined using SOX17 antibody labeling. As previously shown in FIGS. 10A-F, there was a dramatic increase in the relative number of SOX17 labeled cells over time.
In these experiments, hESCs were differentiated by growing in RPMI medium (Invitrogen, Carlsbad, Calif.; cat#61870-036) supplemented with 0.5%, 2.0% or 10% FBS and either with or without 100 ng/mL activin A for 6 days. In addition, a gradient of FBS ranging from 0.5% to 2.0% over the first three days of differentiation was also used in conjunction with 100 ng/mL of activin A. After the 6 days, replicate samples were collected from each culture condition and analyzed for relative gene expression by real-time quantitative PCR. The remaining cells were fixed for immunofluorescent detection of SOX17 protein.

B1: Activin A: growth factor of the TGFβ superfamily, Nodal/Activin subgroup; definitive endoderm inducer (protein, UniProt P08476 311-426, looked up)
Inhibin beta A chain: GLECDGKVNICCKKQFFVSFKDIGWNDWIIAPSGYHANYCEGECPSHIAGTSGSSLSFHSTVINHYRMRGHSPFANLKSCCVPTKLRPMSMLYYDDGQNIIKKDIQNMIVEECGCS
- difference in SOX17 antibody-labeled cell number, Activin A vs retinoic acid treated hESCs (FIG. 7B): 10 fold
- SOX17+ cell number, dose response (FIG. 22): dose-dependent increase
- frequency of SOX17+ cells (high dose activin A, FBS at 10% (v/v), 6 days): much lower frequency
- distribution of SOX17+ cells in the culture (high dose activin A, low FBS concentration (0.5%-2.0%), 6 days): ubiquitously distributed
